Values quoted from earlier work in patent US20230398266A1, “THERAPEUTIC AGENT FOR USE IN LOCAL TREATMENT OF INFLAMMATION ASSOCIATED WITH ATHEROSCLEROSIS AND/OR A THROMBOTIC STATE” (priority 2020, published 2023).

Assays:
patients with COVID-19 = details: for side effects related to systemic administration: patients with COVID-19; for results in patients with COVID-19: systemic administration, preliminary studies
[1] = test system: patients with previous myocardial infarction and elevated inflammatory indices; details: systemic administration; compared to placebo

Substance	side effects related to systemic administration (patients with COVID-19)	results in patients with COVID-19 (patients with COVID-19)	incidence of cardiovascular events (death from heart disease, myocardial infarction, cerebral stroke) [1]	incidence of serious side effects such as fatal sepsis and thrombocythemia [1]
tocilizumab	severe side effects	encouraging results	–	–
anakinra	severe side effects	encouraging results	–	–
canakinumab	–	–	lower incidence of cardiovascular events compared to placebo	higher incidence of serious side effects
